Measurements: the RNAGym collection of RNA variant scans (doi:10.7554/elife.90254)

B1: LINE1-full (parent)
chain: UACGUAGGUGGUUUUCCCCUGAUAGUGCUAAGGGGGCCUGGAAGUUUGGACUGGGCAGAGCUCAACACAGCGUGGCAAAGUGGCUGUGGCUAGACUGCCUCUCUGGAUUCCUCGUCACUCAGCAGGGCAUCUCUGAGAGAAAUGCC

Variants of: B1
Assay: self-cleavage, relative activity (ratio to wild type); higher = more cleavage; in vitro, sequencing; the parent is a self-cleaving ribozyme

| Variant | self-cleavage |
| --- | --- |
| UACGUAGGUGGUUUUCCCCUGAUAGUGCUAAGGGGGCCUGGAAGUUUGGACUGGGCAGAGCUCAACACAGCGUGGCAAAGUGACUGUGGCUAGACUGCCUCUCUGGAUUCCUCGUCACUCAGCAGGGCAUCUCUGAGAGAAAUGCC [G83A] | 0.86 |
| UACGUAGGUGGUUUUCCCCUGAUAGUGCUAAGGGGGCCUGGAAGUUUGGACUGGGCAGAGCUCAACACAGCGUGGCAAAGUGACUGUGGCUAGUCUGCCUCUCUGGAUUCCUCGUCACUCAGCAGGGCAUCUCUGAGAGAAAUGCC [G83A A94U] | 0.24 |
| UACGUAGGUGGUUUUCCCCUGAUAGUGCUAAGGGGGCCUGGAAGUUUGGACUGGGCAGAGCUCAACACAGCGUGGCAAAGUGACUGUGGCUAGACUGCCUCUCUGGGUUCCUCGUCACUCAGCAGGGCAUCUCUGAGAGAAAUGCC [G83A A107G] | 0.91 |
| UACGUAGGUGGUUUUCCCCUGAUAGUGCUAAGGGGGCCUGGAAGUUUGGACUGGGCAGAGCUCAACACAGCGUGGCAAAGUGACUGUGGCUAGACUGCCUCUCUGGAUUCCUCGUCACUCGGCAGGGCAUCUCUGAGAGAAAUGCC [G83A A121G] | 0.98 |
| UACGUAGGUGGUUUUCCCCUGAUAGUGCUAAGGGGGCCUGGAAGUUUGGACUGGGCAGAGCUCAACACAGCGUGGCAAAGUGACUGUGGCUAGACUGCCUCUCUGGAUUCCUCGUCACUCAGCAGGGCAUCUCUGGGAGAAAUGCC [G83A A136G] | 1.05 |
| UACGUAGGUGGUUUUCCCCUGAUAGUGCUAAGGGGGCCUGGAAGUUUGGACUGGGCAGAGCUCAACACAGCGUGGCAAAGUGACUGUGGCUAGACUGCCUCUCUGGAUUCCUCGUCACUCAGCAGGGCAUCUCUGAGGGAAAUGCC [G83A A138G] | 0.73 |
| UACGUAGGUGGUUUUCCCCUGAUAGUGCUAAGGGGGCCUGGAAGUUUGGACUGGGCAGAGCUCAACACAGCGUGGCAAAGUGACUGUGGCUAGACUCCCUCUCUGGAUUCCUCGUCACUCAGCAGGGCAUCUCUGAGAGAAAUGCC [G83A G97C] | 0.18 |
| UACGUAGGUGGUUUUCCCCUGAUAGUGCUAAGGGGGCCUGGAAGUUUGGACUGGGCAGAGCUCAACACAGCGUGGCAAAGUGACCGUGGCUAGACUGCCUCUCUGGAUUCCUCGUCACUCAGCAGGGCAUCUCUGAGAGAAAUGCC [G83A U85C] | 0.09 |
| UACGUAGGUGGUUUUCCCCUGAUAGUGCUAAGGGGGCCUGGAAGUUUGGACUGGGCAGAGCUCAACACAGCGUGGCAAAGUGACGGUGGCUAGACUGCCUCUCUGGAUUCCUCGUCACUCAGCAGGGCAUCUCUGAGAGAAAUGCC [G83A U85G] | 0.1 |
| UACGUAGGUGGUUUUCCCCUGAUAGUGCUAAGGGGGCCUGGAAGUUUGGACUGGGCAGAGCUCAACACAGCGUGGCAAAGUGACUGUGGCCAGACUGCCUCUCUGGAUUCCUCGUCACUCAGCAGGGCAUCUCUGAGAGAAAUGCC [G83A U91C] | 0.24 |
| UACGUAGGUGGUUUUCCCCUGAUAGUGCUAAGGGGGCCUGGAAGUUUGGACUGGGCAGAGCUCAACACAGCGUGGCAAAGUGACUGUGGCUAGACUGCCUCUCCGGAUUCCUCGUCACUCAGCAGGGCAUCUCUGAGAGAAAUGCC [G83A U104C] | 0.95 |
| UACGUAGGUGGUUUUCCCCUGAUAGUGCUAAGGGGGCCUGGAAGUUUGGACUGGGCAGAGCUCAACACAGCGUGGCAAAGUGACUGUGGCUAGACUGCCUCUCUGGACUCCUCGUCACUCAGCAGGGCAUCUCUGAGAGAAAUGCC [G83A U108C] | 0.56 |
| UACGUAGGUGGUUUUCCCCUGAUAGUGCUAAGGGGGCCUGGAAGUUUGGACUGGGCAGAGCUCAACACAGCGUGGCAAAGUGACUGUGGCUAGACUGCCUCUCUGGAUUCCCCGUCACUCAGCAGGGCAUCUCUGAGAGAAAUGCC [G83A U112C] | 0.54 |
| UACGUAGGUGGUUUUCCCCUGAUAGUGCUAAGGGGGCCUGGAAGUUUGGACUGGGCAGAGCUCAACACAGCGUGGCAAAGUGACUGUGGCUAGACUGCCUCUCUGGAUUCCUCGCCACUCAGCAGGGCAUCUCUGAGAGAAAUGCC [G83A U115C] | 1.47 |
| UACGUAGGUGGUUUUCCCCUGAUAGUGCUAAGGGGGCCUGGAAGUUUGGACUGGGCAGAGCUCAACACAGCGUGGCAAAGUGACUGUGGCUAGACUGCCUCUCUGGAUUCCUCGUCACACAGCAGGGCAUCUCUGAGAGAAAUGCC [G83A U119A] | 0.85 |
| UACGUAGGUGGUUUUCCCCUGAUAGUGCUAAGGGGGCCUGGAAGUUUGGACUGGGCAGAGCUCAACACAGCGUGGCAAAGUGACUGUGGCUAGACUGCCUCUCUGGAUUCCUCGUCACCCAGCAGGGCAUCUCUGAGAGAAAUGCC [G83A U119C] | 1.51 |
| UACGUAGGUGGUUUUCCCCUGAUAGUGCUAAGGGGGCCUGGAAGUUUGGACUGGGCAGAGCUCAACACAGCGUGGCAAAGUGACUGUGGCUAGACUGCCUCUCUGGAUUCCUCGUCACUCAGCAGGGCAACUCUGAGAGAAAUGCC [G83A U130A] | 0.99 |
| UACGUAGGUGGUUUUCCCCUGAUAGUGCUAAGGGGGCCUGGAAGUUUGGACUGGGCAGAGCUCAACACAGCGUGGCAAAGUGACUGUGGCUAGACUGCCUCUCUGGAUUCCUCGUCACUCAGCAGGGCAUCUCUGAGAGAAACGCC [G83A U143C] | 0.71 |
| UACGUAGGUGGUUUUCCCCUGAUAGUGCUAAGGGGGCCUGGAAGUUUGGACUGGGCAGAGCUCAACACAGCGUGGCAAAGUGCCUGUGGCUAGACUGCCUCUCUGGAUUCCUCGUCACUCAGCAGGGCAUCUCUGAGAGAAAUGCC [G83C] | 0.87 |
| UACGUAGGUGGUUUUCCCCUGAUAGUGCUAAGGGGGCCUGGAAGUUUGGACUGGGCAGAGCUCAACACAGCGUGGCAAAGUGCCUGUGGCUAGGCUGCCUCUCUGGAUUCCUCGUCACUCAGCAGGGCAUCUCUGAGAGAAAUGCC [G83C A94G] | 0.17 |

| Variant | self-cleavage |
| --- | --- |
| UACGUAGGUGGUUUUCCCCUGAUAGUGCUAAGGGGGCCUGGAAGUUUGGACUGGGCAGAGCUCAACACAGCGUGGCAAAGUGCCUGUGGCUAGACUGCCUCUCUGGAUUCCUCGUCGCUCAGCAGGGCAUCUCUGAGAGAAAUGCC [G83C A117G] | 0.76 |
| UACGUAGGUGGUUUUCCCCUGAUAGUGCUAAGGGGGCCUGGAAGUUUGGACUGGGCAGAGCUCAACACAGCGUGGCAAAGUGUCUGUGGCUAGACUGCCUCUCUGGAUUCCUCGUCACUCAGCAGGGCAUCUCUGAGAGAAAUGCC [G83U] | 0.86 |
| UACGUAGGUGGUUUUCCCCUGAUAGUGCUAAGGGGGCCUGGAAGUUUGGACUGGGCAGAGCUCAACACAGCGUGGCAAAGUGUCUGUGGCUAGACUGCCUCUCUGGAUUCCUCGUCUCUCAGCAGGGCAUCUCUGAGAGAAAUGCC [G83U A117U] | 1.21 |
| UACGUAGGUGGUUUUCCCCUGAUAGUGCUAAGGGGGCCUGGAAGUUUGGACUGGGCAGAGCUCAACACAGCGUGGCAAAGUGUCUGUGGCUAGACUGCCUCUCUGGAUUCCUCGUCACUCAGCGGGGCAUCUCUGAGAGAAAUGCC [G83U A124G] | 0.36 |
| UACGUAGGUGGUUUUCCCCUGAUAGUGCUAAGGGGGCCUGGAAGUUUGGACUGGGCAGAGCUCAACACAGCGUGGCAAAGUGUCUGUGGCUAGACUGCCUCUCUGGAUUCCUCGUCACUCAGCAGGGCAUCUCUGAGAGAAGUGCC [G83U A142G] | 0.44 |
| UACGUAGGUGGUUUUCCCCUGAUAGUGCUAAGGGGGCCUGGAAGUUUGGACUGGGCAGAGCUCAACACAGCGUGGCAAAGUGUCAGUGGCUAGACUGCCUCUCUGGAUUCCUCGUCACUCAGCAGGGCAUCUCUGAGAGAAAUGCC [G83U U85A] | 0.07 |
| UACGUAGGUGGUUUUCCCCUGAUAGUGCUAAGGGGGCCUGGAAGUUUGGACUGGGCAGAGCUCAACACAGCGUGGCAAAGUGUCUGUGGCUAGACUGCCUCUCUGGAUUCCCCGUCACUCAGCAGGGCAUCUCUGAGAGAAAUGCC [G83U U112C] | 0.85 |
| UACGUAGGUGGUUUUCCCCUGAUAGUGCUAAGGGGGCCUGGAAGUUUGGACUGGGCAGAGCUCAACACAGCGUGGCAAAGUGGAUGUGGCUAGACUGCCUCUCUGGAUUCCUCGUCACUCAGCAGGGCAUCUCUGAGAGAAAUGCC [C84A] | 0.1 |
| UACGUAGGUGGUUUUCCCCUGAUAGUGCUAAGGGGGCCUGGAAGUUUGGACUGGGCAGAGCUCAACACAGCGUGGCAAAGUGGAUGUGGCUAGACUGCCUCUCUGGAUUCCUCGUCACUCAGCAGGGCAUCUCUGAGAGAGAUGCC [C84A A141G] | 0.09 |
| UACGUAGGUGGUUUUCCCCUGAUAGUGCUAAGGGGGCCUGGAAGUUUGGACUGGGCAGAGCUCAACACAGCGUGGCAAAGUGGAUGUGGCUAGACUGCCUCUCUGGAUUCCUCGUCACUCAGCAGGGCAUCUCUGAGAGAAAUGUC [C84A C145U] | 0.08 |
| UACGUAGGUGGUUUUCCCCUGAUAGUGCUAAGGGGGCCUGGAAGUUUGGACUGGGCAGAGCUCAACACAGCGUGGCAAAGUGGAUGUGGCCAGACUGCCUCUCUGGAUUCCUCGUCACUCAGCAGGGCAUCUCUGAGAGAAAUGCC [C84A U91C] | 0.13 |
| UACGUAGGUGGUUUUCCCCUGAUAGUGCUAAGGGGGCCUGGAAGUUUGGACUGGGCAGAGCUCAACACAGCGUGGCAAAGUGGAUGUGGCUAGACUGCCCCUCUGGAUUCCUCGUCACUCAGCAGGGCAUCUCUGAGAGAAAUGCC [C84A U100C] | 0.14 |
| UACGUAGGUGGUUUUCCCCUGAUAGUGCUAAGGGGGCCUGGAAGUUUGGACUGGGCAGAGCUCAACACAGCGUGGCAAAGUGGAUGUGGCUAGACUGCCUCUCUGGAAUCCUCGUCACUCAGCAGGGCAUCUCUGAGAGAAAUGCC [C84A U108A] | 0.12 |
| UACGUAGGUGGUUUUCCCCUGAUAGUGCUAAGGGGGCCUGGAAGUUUGGACUGGGCAGAGCUCAACACAGCGUGGCAAAGUGGAUGUGGCUAGACUGCCUCUCUGGAUUCCUCGUCACUCAGCAGGGCACCUCUGAGAGAAAUGCC [C84A U130C] | 0.15 |
| UACGUAGGUGGUUUUCCCCUGAUAGUGCUAAGGGGGCCUGGAAGUUUGGACUGGGCAGAGCUCAACACAGCGUGGCAAAGUGGGUGUGGCUAGACUGCCUCUCUGGAUUCCUCGUCACUCAGCAGGGCAUCUCUGAGAGAAAUGCC [C84G] | 0.09 |
| UACGUAGGUGGUUUUCCCCUGAUAGUGCUAAGGGGGCCUGGAAGUUUGGACUGGGCAGAGCUCAACACAGCGUGGCAAAGUGGGUGUGGCUAGUCUGCCUCUCUGGAUUCCUCGUCACUCAGCAGGGCAUCUCUGAGAGAAAUGCC [C84G A94U] | 0.13 |
| UACGUAGGUGGUUUUCCCCUGAUAGUGCUAAGGGGGCCUGGAAGUUUGGACUGGGCAGAGCUCAACACAGCGUGGCAAAGUGGGUGUGGCUAGACUGCCUCUCUGGAUUCCUCGUCACUCAGCAGGGCGUCUCUGAGAGAAAUGCC [C84G A129G] | 0.2 |
| UACGUAGGUGGUUUUCCCCUGAUAGUGCUAAGGGGGCCUGGAAGUUUGGACUGGGCAGAGCUCAACACAGCGUGGCAAAGUGGGUGUGGCUAGACUGCCUCUCUGGAUUCCUCGUCACUCAGCAGGGCAUCUCUGAGAGAAAUGCA [C84G C146A] | 0.1 |
| UACGUAGGUGGUUUUCCCCUGAUAGUGCUAAGGGGGCCUGGAAGUUUGGACUGGGCAGAGCUCAACACAGCGUGGCAAAGUGGGUGUGGCUAAACUGCCUCUCUGGAUUCCUCGUCACUCAGCAGGGCAUCUCUGAGAGAAAUGCC [C84G G93A] | 0.08 |
